The source of these data is the supplement of paper PMC10724198.

± gives the standard deviation of the averaged measurements.
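Note: PSI is a weighted mean of sequencing reads over stability bins, variants kept only with over 10 reads, mCherry proximal and sfGFP distal, peptide attached via GGGS linker.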

In the data set the test system is Saccharomyces cerevisiae. Description: protein stability index of tFT-peptide fusion (C-terminal peptide) (PSI (0-1 scale)); higher = more stable (slower turnover). To be noted: genetic background: wild type; temperature: 30 C.
Regarding KRGRRKLQRGRQ, the protein stability index amounted to 0.679 ± 0.028.
The result for KRGVVGFGKGGG reads 0.6654 ± 0.0027; that for KRIDLDCSVAAD, 0.643 ± 0.022; that for KRKAQEVNSKKK, 0.703 ± 0.011.
Under KRKENKKNKEKK stands 0.669 ± 0.042; under KRKREKKLKKYK, 0.634 ± 0.037; under KRLKKKRNRAKA, 0.683 ± 0.031.
The result for KRLTSKVKTITG reads 0.694 ± 0.031; that for KRNKDYGSFEVT, 0.629 ± 0.029; that for KRRKKKKQSGGK, 0.645 ± 0.023.
For KRSIEIRTKIKL, the protein stability index amounted to 0.7 ± 0.022.
The result for KRTRRADVGKED reads 0.65 ± 0.064.
For the sequence KRVGLRLCGRLT, the protein stability index amounted to 0.704 ± 0.04.
The result for KRVSGSEQDIAT reads 0.6561 ± 0.0026; that for KRYKSYEDKNVM, 0.696 ± 0.033.
KSEIRDGRFPSC yielded a protein stability index of 0.589 ± 0.011.
Sequence KSEMAIIEKKEN returned a protein stability index of 0.667 ± 0.055.
Regarding KSGVWLWVGGGG, the protein stability index was found to be 0.714 ± 0.033.
In the case of KSKDKGEGKELK, the protein stability index was 0.694 ± 0.088.
Regarding KSKTRTKLYSRN, the protein stability index is 0.6421 ± 0.0017.
Under KSLSEKSKEKGS stands 0.668 ± 0.034; under KSLYLVDDRVGR, 0.764 ± 0.078.
In turn, KSNTGGGERNKA came in with a protein stability index of 0.668 ± 0.018.
Under KSPYNTPLSLVL stands 0.672 ± 0.024.
In turn, KSRVCSPSNEPS showed a protein stability index of 0.7443 ± 0.0074.
KSYTGSRGQRVL yielded a protein stability index of 0.701 ± 0.053.
In turn, KTFRTYRTYFRK had a protein stability index of 0.682 ± 0.023.
Sequence KTKEKTKKEIQM yielded a protein stability index of 0.629 ± 0.0042.
The result for KTKKKKKKKINK reads 0.711 ± 0.11; that for KTKNTQRKTEEN, 0.653 ± 0.047; that for KTKTKKKERNRK, 0.622 ± 0.088.
Sequence KTLYIAKTKSRA had a protein stability index of 0.644 ± 0.038.
Consider KTNLGNTKVKKK, for which the protein stability index was determined as 0.613 ± 0.025.
Take KTPAAVPWTRER: the protein stability index amounted to 0.693 ± 0.013.
As for KTPHSTARNFNR, the protein stability index amounted to 0.736 ± 0.092.
As for KTRNDQPQKFHN, the protein stability index turned out to be 0.688 ± 0.034.
The sequence KVCIRFSCKIHM yielded a protein stability index of 0.6396 ± 0.0021.
Turning to KVIRVEALEILV, the protein stability index was determined as 0.544 ± 0.023.
The sequence KVKIKREKKKRK displayed a protein stability index of 0.672 ± 0.017.
Sequence KVQGGGKYPTYS gave a protein stability index of 0.699 ± 0.058.
KVSATIISFENI gave a protein stability index of 0.709 ± 0.1.
With KVVGRLGVERVR, the protein stability index was 0.753 ± 0.0052.
KWREQPRNDIVL had a protein stability index of 0.604 ± 0.047.
The sequence KYDSPFFNWCSQ registered a protein stability index of 0.579 ± 0.031.
The sequence KYKEEINEKIFN gave a protein stability index of 0.646 ± 0.022.
Consider KYKELEAAALQK, for which the protein stability index was determined as 0.732 ± 0.11.
Consider KYRHDFNEVSKT, for which the protein stability index stood at 0.665 ± 0.036.
In turn, LAEGFSLIRSHR displayed a protein stability index of 0.685 ± 0.019.
For LAFFEFVVDSLG, the protein stability index amounted to 0.677 ± 0.018.
Under LAGGMTSRTVSI stands 0.716 ± 0.0073; under LAGVTLPRPSSA, 0.6633 ± 0.0046; under LAIIKLRGDLSY, 0.6646 ± 0.0019.
As for LAKRSKCCNRSR, the protein stability index came out at 0.686 ± 0.018.
Regarding LALGICRLSSAG, the protein stability index amounted to 0.7599 ± 0.005.
Sequence LALSRVALFSHS yielded a protein stability index of 0.679 ± 0.042.
The result for LAPPPARLPLSP reads 0.687 ± 0.009; that for LARFRAEWGGVV, 0.691 ± 0.019.
For LARWFILRDLIY, the protein stability index amounted to 0.56 ± 0.0089.
Turning to LASARPLILSWP, the protein stability index amounted to 0.628 ± 0.019.
Under LASEPLPPYPPS stands 0.704 ± 0.052; under LASPPFPRPPPP, 0.57 ± 0.12.
As for LASSLTALRYPP, the protein stability index was 0.742 ± 0.064.
Sequence LASYSSCYIRDF displayed a protein stability index of 0.751 ± 0.017.
Sequence LATPPPPPLSPP returned a protein stability index of 0.789 ± 0.19.
Sequence LAVKGIVNDSTI registered a protein stability index of 0.683 ± 0.0084.
Under LCGVRGESGLEG stands 0.685 ± 0.031.
With LCLFRSCVHSSA, the protein stability index was 0.616 ± 0.049.
The result for LCLRRLSCVGFG reads 0.568 ± 0.022; that for LCLWVWGSVVGG, 0.6123 ± 0.0015.
Regarding LCPNFFFFSSSP, the protein stability index was 0.75 ± 0.017.
Under LCPRIAIVHPPS stands 0.606 ± 0.027; under LCQCAFLSFSCF, 0.61642 ± 1.1e-05; under LCRPNELPDGLP, 0.664 ± 0.039.
The result for LCSLWWGLVSGW reads 0.652 ± 0.029; that for LCSPCSSLFHSQ, 0.656 ± 0.032; that for LCVGAGCAFEEG, 0.675 ± 0.025.
For the sequence LCVWFGGLGLVG, the protein stability index came to 0.69 ± 0.019.
In turn, LDAVRCRDKAVV showed a protein stability index of 0.6537 ± 0.0036.
Regarding LDGAHLLLNTIP, the protein stability index is 0.687 ± 0.039.
On to LDRTIPGPWPLR, for which the protein stability index stood at 0.731 ± 0.042.
